From patent US10501502B2, “Allophycocyanin alpha-subunit evolved labeling proteins (smURFPs)” (The Regents of the University of California, priority 2016, dated 2019)

Assay: Incorporation rates in vitro of BV on initially chromophore-free smURFP
Assay type: biochemical
Method: EX and EM spectra were obtained using SPEX Fluorolog fluorometer (Horiba). Absorbance spectra were obtained using UV-VIS Spectrophotometer Cary Eclipse (Varian) or UV-2700 (Shimadzu). Quantum yield was determined relative to Cy5. Incorporation rates of BV on 0.5 μM smURFP was performed by addition of smURFP to PBS alone or with 20% fetal bovine serum (FBS) and mixed by pipetting in a quartz cuvette. Chromophore was added last, mixed by pipetting, and fluorescence was recorded using SPEX Fluorolog fluorometer (Horiba). Photobleaching was characterized on bubbles of purified FP or Cy5 within mineral oil using light from a 150 W xenon arc lamp with 100% light through EX/EM=628(40)/680(30) nm for smURFP, TDsmURFP, and Cy5 or EX/EM=665 (45)/725 (50) nm for IFP 1.4 focused with a 40×, 1.2 numerical aperture C-Apochromat oil-immersion lens on a Zeiss Axiovert 200M inverted microscope. Photobleaching times were normalized to reflect an initial illumination intensity producing 1,000 photons per fluorescent molecule per second as previously described^37.

[1] = 0.5 μM smURFP in PBS + 20% FBS, + 0.1 μM BV
[2] = 0.5 μM smURFP in PBS + 20% FBS, + 0.1 μM BV (pH 9.4)
[3] = 0.5 μM smURFP in PBS + 20% FBS, + 0.1 μM BV + 1 mM DTT
[4] = 0.5 μM smURFP in PBS + 20% FBS, + 1 μM BV
[5] = 0.5 μM smURFP in PBS + 20% FBS, + 1 μM BV (pH 9.4)
[6] = 0.5 μM smURFP in PBS + 20% FBS, + 1 μM BV + 1 mM DTT
[7] = 0.5 μM smURFP in PBS + 20% FBS, + 10 μM BV
[8] = 0.5 μM smURFP in PBS + 20% FBS, + 10 μM BV (pH 9.4)
[9] = 0.5 μM smURFP in PBS + 20% FBS, + 10 μM BV + 1 mM DTT
[10] = 0.5 μM smURFP in PBS + 20% FBS, Avg. 3 Conc.
[11] = 0.5 μM smURFP in PBS + 20% FBS, Avg. 3 Conc. (pH 9.4)
[12] = 0.5 μM smURFP in PBS + 20% FBS, Avg. 3 Conc. + 1 mM DTT
[13] = 0.5 μM smURFP in PBS, + 0.1 μM BV
[14] = 0.5 μM smURFP in PBS, + 0.1 μM BV (pH 8)
[15] = 0.5 μM smURFP in PBS, + 0.1 μM BV + 1 mM DTT
[16] = 0.5 μM smURFP in PBS, + 1 μM BV
[17] = 0.5 μM smURFP in PBS, + 1 μM BV (pH 8)
[18] = 0.5 μM smURFP in PBS, + 1 μM BV + 1 mM DTT
[19] = 0.5 μM smURFP in PBS, + 10 μM BV
[20] = 0.5 μM smURFP in PBS, + 10 μM BV (pH 8)
[21] = 0.5 μM smURFP in PBS, + 10 μM BV + 1 mM DTT
[22] = 0.5 μM smURFP in PBS, Avg. 3 Conc.
[23] = 0.5 μM smURFP in PBS, Avg. 3 Conc. (pH 8)
[24] = 0.5 μM smURFP in PBS, Avg. 3 Conc. + 1 mM DTT

B1: smURFP: small ultra-red fluorescent protein, SEQ ID NO: 13, homodimer, covalently attaches biliverdin (protein)
chain: MKTSEQRVNIATLLTENKKKIVDKASQDLWRRHPDLIAPGGIAFSQRDRALCLRDYGWFLHLITFCLLAGDKGPIESIGLISIREMYNSLGVPVPAMMESIRCLKEASLSLLDEEDANETAPYFDYIIKAMS
modifications: homodimer; biliverdin chromophore; smRUFP Variant Polypeptide
- A [1]: 1.1
- T50% [1]: 43 min
- k [1]: 0.016 min⁻¹
- A [2]: 0.95
- T50% [2]: 7.1 min
- k [2]: 0.097 min⁻¹
- A [3]: 0.95
- T50% [3]: 30 min
- k [3]: 0.023 min⁻¹
- A [4]: 1.1
- T50% [4]: 58 min
- k [4]: 0.012 min⁻¹
- A [5]: 0.99
- T50% [5]: 16 min
- k [5]: 0.043 min⁻¹
- A [6]: 0.95
- T50% [6]: 32 min
- k [6]: 0.022 min⁻¹
- A [7]: 1.1
- T50% [7]: 46 min
- k [7]: 0.015 min⁻¹
- A [8]: 0.99
- T50% [8]: 11 min
- k [8]: 0.063 min⁻¹
- A [9]: 0.96
- T50% [9]: 16 min
- k [9]: 0.043 min⁻¹
- A [10]: 1.1
- T50% [10]: 50 min
- k [10]: 0.014 min⁻¹
- A [11]: 0.98
- T50% [11]: 11 min
- k [11]: 0.066 min⁻¹
- A [12]: 0.95
- T50% [12]: 24 min
- k [12]: 0.029 min⁻¹
- A [13]: 1.1
- T50% [13]: 29 min
- k [13]: 0.024 min⁻¹
- A [14]: 1.1
- T50% [14]: 24 min
- k [14]: 0.029 min⁻¹
- A [15]: 1.1
- T50% [15]: 58 min
- k [15]: 0.012 min⁻¹
- A [16]: 1.1
- T50% [16]: 46 min
- k [16]: 0.015 min⁻¹
- A [17]: 1.1
- T50% [17]: 24 min
- k [17]: 0.029 min⁻¹
- A [18]: 1.1
- T50% [18]: 63 min
- k [18]: 0.011 min⁻¹
- A [19]: 1.1
- T50% [19]: 46 min
- k [19]: 0.015 min⁻¹
- A [20]: 1.1
- T50% [20]: 22 min
- k [20]: 0.032 min⁻¹
- A [21]: 1.1
- T50% [21]: 46 min
- k [21]: 0.015 min⁻¹
- A [22]: 1.0
- T50% [22]: 39 min
- k [22]: 0.018 min⁻¹
- A [23]: 1.1
- T50% [23]: 2 min
- k [23]: 0.030 min⁻¹
- A [24]: 1.1
- T50% [24]: 53 min
- k [24]: 0.013 min⁻¹
- chromophore maturation or attachment t50% (BV attachment): 39^ min
